From the MegaScale stability set (Tsuboyama et al. 2023)

B1: r11_951_TrROS_Hall (parent)
chain: KKKYVIKVYFEDTGKEVEIEAESKEEALEAAKRLAEELGLKIKKVEIYP

Variants of: B1
Assay: folding stability dG (cDNA display proteolysis); higher = more stable
Conditions: PBS, room temperature

Q: Which “folding stability dG” value does the source give for KKKYVIKVYFEDTGKEVEIEAESKEEALEAAKRLAEELGLKIKKVTIYP here?
A: 4.36 kcal/mol

Q: With KKKYVIKVYFEDTGKEVEIEAESKEEALEAAKRLAEELGLKIKKVQIYP as the variant, how does the “folding stability dG” value read?
A: 4.26 kcal/mol

Q: With KKKYVIKVYFEDTGKEVEIEAESKEEALEAAKRLAEELGLKIKKVKIYP as the variant, how does the “folding stability dG” value read?
A: 4.22 kcal/mol

Q: For KKKYVIKVYFEDTGKEVEIEAESKEEALEAAKRLAEELGLKIKKVAIYP, which “folding stability dG” value is on record?
A: 4.32 kcal/mol

Q: With KKKYVIKVYFEDTGKEVEIEAESKEEALEAAKRLAEELGLKIKKVRIYP as the variant, how does the “folding stability dG” value read?
A: 4.16 kcal/mol

Q: For KKKYVIKVYFEDTGKEVEIEAESKEEALEAAKRLAEELGLKIKKVNIYP, which “folding stability dG” value is on record?
A: 4.19 kcal/mol

Q: With KKKYVIKVYFEDTGKEVEIEAESKEEALEAAKRLAEELGLKIKKVVIYP as the variant, how does the “folding stability dG” value read?
A: 4.66 kcal/mol

Q: For KKKYVIKVYFEDTGKEVEIEAESKEEALEAAKRLAEELGLKIKKVFIYP, which “folding stability dG” value is on record?
A: 4.64 kcal/mol

Q: With KKKYVIKVYFEDTGKEVEIEAESKEEALEAAKRLAEELGLKIKKVGIYP as the variant, how does the “folding stability dG” value read?
A: 3.71 kcal/mol

Q: With KKKYVIKVYFEDTGKEVEIEAESKEEALEAAKRLAEELGLKIKKVMIYP as the variant, how does the “folding stability dG” value read?
A: 4.49 kcal/mol

Q: With KKKYVIKVYFEDTGKEVEIEAESKEEALEAAKRLAEELGLKIKKVSIYP as the variant, how does the “folding stability dG” value read?
A: 4.33 kcal/mol

Q: For KKKYVIKVYFEDTGKEVEIEAESKEEALEAAKRLAEELGLKIKKVIIYP, which “folding stability dG” value is on record?
A: 4.47 kcal/mol

Q: Which “folding stability dG” value does the source give for KKKYVIKVYFEDTGKEVEIEAESKEEALEAAKRLAEELGLKIKKVPIYP here?
A: 2.41 kcal/mol

Q: Which “folding stability dG” value does the source give for KKKYVIKVYFEDTGKEVEIEAESKEEALEAAKRLAEELGLKIKKVLIYP here?
A: 4.38 kcal/mol

Q: With KKKYVIKVYFEDTGKEVEIEAESKEEALEAAKRLAEELGLKIKKVCIYP as the variant, how does the “folding stability dG” value read?
A: 4.15 kcal/mol

Q: With KKKYVIKVYFEDTGKEVEIEAESKEEALEAAKRLAEELGLKIKKVDIYP as the variant, how does the “folding stability dG” value read?
A: 4.38 kcal/mol

Q: For KKKYVIKVYFEDTGKEVEIEAESKEEALEAAKRLAEELGLKIKKVWIYP, which “folding stability dG” value is on record?
A: 4.47 kcal/mol

Q: For KKKYVIKVYFEDTGKEVEIEAESKEEALEAAKRLAEELGLKIKKVHIYP, which “folding stability dG” value is on record?
A: 4.53 kcal/mol

Q: For KKKYVIKVYFEDTGKEVEIEAESKEEALEAAKRLAEELGLKIKKVYIYP, which “folding stability dG” value is on record?
A: 4.61 kcal/mol

Q: For KKKYVIKVYFEDTGKEVEIEAESKEEALEAAKRLAEELGLKIKKVEMYP, which “folding stability dG” value is on record?
A: 4.53 kcal/mol

Q: Which “folding stability dG” value does the source give for KKKYVIKVYFEDTGKEVEIEAESKEEALEAAKRLAEELGLKIKKVECYP here?
A: 4.13 kcal/mol

Q: Which “folding stability dG” value does the source give for KKKYVIKVYFEDTGKEVEIEAESKEEALEAAKRLAEELGLKIKKVEAYP here?
A: 4.17 kcal/mol

Q: For KKKYVIKVYFEDTGKEVEIEAESKEEALEAAKRLAEELGLKIKKVEPYP, which “folding stability dG” value is on record?
A: 4.04 kcal/mol

Q: With KKKYVIKVYFEDTGKEVEIEAESKEEALEAAKRLAEELGLKIKKVEDYP as the variant, how does the “folding stability dG” value read?
A: 3.99 kcal/mol

Q: Which “folding stability dG” value does the source give for KKKYVIKVYFEDTGKEVEIEAESKEEALEAAKRLAEELGLKIKKVEFYP here?
A: 4.32 kcal/mol

Q: Which “folding stability dG” value does the source give for KKKYVIKVYFEDTGKEVEIEAESKEEALEAAKRLAEELGLKIKKVEYYP here?
A: 4.47 kcal/mol

Q: With KKKYVIKVYFEDTGKEVEIEAESKEEALEAAKRLAEELGLKIKKVEQYP as the variant, how does the “folding stability dG” value read?
A: 4.25 kcal/mol

Q: Which “folding stability dG” value does the source give for KKKYVIKVYFEDTGKEVEIEAESKEEALEAAKRLAEELGLKIKKVETYP here?
A: 4.17 kcal/mol

Q: Which “folding stability dG” value does the source give for KKKYVIKVYFEDTGKEVEIEAESKEEALEAAKRLAEELGLKIKKVEEYP here?
A: 4.33 kcal/mol

Q: With KKKYVIKVYFEDTGKEVEIEAESKEEALEAAKRLAEELGLKIKKVEWYP as the variant, how does the “folding stability dG” value read?
A: 4.49 kcal/mol

Q: Which “folding stability dG” value does the source give for KKKYVIKVYFEDTGKEVEIEAESKEEALEAAKRLAEELGLKIKKVELYP here?
A: 4.48 kcal/mol

Q: Which “folding stability dG” value does the source give for KKKYVIKVYFEDTGKEVEIEAESKEEALEAAKRLAEELGLKIKKVEHYP here?
A: 4.35 kcal/mol

Q: For KKKYVIKVYFEDTGKEVEIEAESKEEALEAAKRLAEELGLKIKKVEVYP, which “folding stability dG” value is on record?
A: 4.33 kcal/mol

Q: Which “folding stability dG” value does the source give for KKKYVIKVYFEDTGKEVEIEAESKEEALEAAKRLAEELGLKIKKVESYP here?
A: 4.24 kcal/mol

Q: With KKKYVIKVYFEDTGKEVEIEAESKEEALEAAKRLAEELGLKIKKVERYP as the variant, how does the “folding stability dG” value read?
A: 3.79 kcal/mol

Q: For KKKYVIKVYFEDTGKEVEIEAESKEEALEAAKRLAEELGLKIKKVEGYP, which “folding stability dG” value is on record?
A: 4.06 kcal/mol

Q: With KKKYVIKVYFEDTGKEVEIEAESKEEALEAAKRLAEELGLKIKKVENYP as the variant, how does the “folding stability dG” value read?
A: 3.89 kcal/mol

Q: With KKKYVIKVYFEDTGKEVEIEAESKEEALEAAKRLAEELGLKIKKVEKYP as the variant, how does the “folding stability dG” value read?
A: 3.7 kcal/mol

Q: Which “folding stability dG” value does the source give for KKKYVIKVYFEDTGKEVEIEAESKEEALEAAKRLAEELGLKIKKREIYP here?
A: 2.97 kcal/mol

Q: For KKKYVIKVYFEDTGKEVEIEAESKEEALEAAKRLAEELGLKIKKIEIYP, which “folding stability dG” value is on record?
A: 3.98 kcal/mol

Q: Which “folding stability dG” value does the source give for KKKYVIKVYFEDTGKEVEIEAESKEEALEAAKRLAEELGLKIKKKEIYP here?
A: 3.16 kcal/mol

Q: For KKKYVIKVYFEDTGKEVEIEAESKEEALEAAKRLAEELGLKIKKCEIYP, which “folding stability dG” value is on record?
A: 4.16 kcal/mol

Q: Which “folding stability dG” value does the source give for KKKYVIKVYFEDTGKEVEIEAESKEEALEAAKRLAEELGLKIKKMEIYP here?
A: 4.47 kcal/mol

Q: Which “folding stability dG” value does the source give for KKKYVIKVYFEDTGKEVEIEAESKEEALEAAKRLAEELGLKIKKHEIYP here?
A: 4.08 kcal/mol

Q: For KKKYVIKVYFEDTGKEVEIEAESKEEALEAAKRLAEELGLKIKKSEIYP, which “folding stability dG” value is on record?
A: 3.94 kcal/mol

Q: With KKKYVIKVYFEDTGKEVEIEAESKEEALEAAKRLAEELGLKIKKEEIYP as the variant, how does the “folding stability dG” value read?
A: 3.18 kcal/mol

Q: For KKKYVIKVYFEDTGKEVEIEAESKEEALEAAKRLAEELGLKIKKTEIYP, which “folding stability dG” value is on record?
A: 4.16 kcal/mol

Q: For KKKYVIKVYFEDTGKEVEIEAESKEEALEAAKRLAEELGLKIKKNEIYP, which “folding stability dG” value is on record?
A: 3.32 kcal/mol

Q: Which “folding stability dG” value does the source give for KKKYVIKVYFEDTGKEVEIEAESKEEALEAAKRLAEELGLKIKKAEIYP here?
A: 3.96 kcal/mol

Q: For KKKYVIKVYFEDTGKEVEIEAESKEEALEAAKRLAEELGLKIKKWEIYP, which “folding stability dG” value is on record?
A: 4.59 kcal/mol

Q: Which “folding stability dG” value does the source give for KKKYVIKVYFEDTGKEVEIEAESKEEALEAAKRLAEELGLKIKKLEIYP here?
A: 4.08 kcal/mol

Q: For KKKYVIKVYFEDTGKEVEIEAESKEEALEAAKRLAEELGLKIKKYEIYP, which “folding stability dG” value is on record?
A: 4.45 kcal/mol

Q: With KKKYVIKVYFEDTGKEVEIEAESKEEALEAAKRLAEELGLKIKKPEIYP as the variant, how does the “folding stability dG” value read?
A: 2.52 kcal/mol
